Key:
[1] = biological target: T1, recombinant human Interleukin-8 (human, UniProt P10145 28-99); assay: KinExA "Kinetics, Direct" method
T1 construct: also called rhIL-8; IL-8
T1 sequence (looked up): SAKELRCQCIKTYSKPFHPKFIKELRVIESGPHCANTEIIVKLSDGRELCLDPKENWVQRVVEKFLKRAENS
Text: (§1) For measuring the association rate constant using KinExA, the same rhIL-8-coupled beads were used as the probe and the “Kinetics, Direct” method was used. The “Kinetics, Direct” experiments by KinExA are identical to KinExA equilibrium assays with respect to bead column height, antibody capture, antibody concentration and antibody detection. Briefly, the mAb was mixed with an amount of antigen that bound approximately 80% of the mAb in the equilibrium experiments and the free antibody present in the sample was probed repeatedly, pre-equilibrium. […] The volumes and flow rates of the antigen-mAb mixtures and the Cy5-labeled secondary antibody were varied depending upon the mAb tested. Data was analyzed utilizing the KinExA analysis software that comes with the KinExA 3000 instrument. This software graphically represents the decrease in binding signals over time, and fits the collected data points to an exact solution of the kinetic differential equations for binding. From this curve, an optimal solution for the kₒₙ is determined. The koff is indirectly calculated from solutions for the kₒₙ and Kd.
(§2) The on-rate measurement by KinExA is not limited by the mAb concentration used in the experiment. […] The concentration of mAb used for on-rate experiments was the same as those used in equilibrium binding experiments. An amount of IL-8 that bound 80% of the mAb in equilibrium binding experiments was mixed with the mAb. The amount of free mAb left in the mixture was measured in KinExA by flowing 1 ml of the mixture repeatedly through rhIL-8 coupled to NHS-activated Sepharose beads and detected using 1 ml of 2.0 μg/ml of Cy5-labeled goat anti-human IgG Fcγ fragment-specific secondary antibody. The kₒₙ was measured using the KinExA software by the “Kinetic, Direct” method and the 95% confidence intervals are given as kₒₙ range. The koff for the mAb was calculated from the measured kₒₙ and Kd of the respective mAb.

[2] = biological target: T2, IL-8 peptide ELRCQCIKTYSK (human); assay: overlapping IL-8 peptides on a membrane; column "Recognized epitope"
T2 peptide: ELRCQCIKTYSK
Description: Briefly, overlapping IL-8 peptides, which were each two amino acids c-terminal to the previous peptide (as shown in FIG. 8) were prepared and attached to a membrane. Antibodies were then added and allowed to bind to the peptides.

[3] = biological target: T1, recombinant human Interleukin-8; assay: calculated from KinExA kon and Kd
Text: as §1, §2

[4] = biological target: T1, recombinant human Interleukin-8; assay: KinExA equilibrium, low mAb concentration experiments analyzed in single curves
Description: (§3) Antigen/antibody complexes were incubated at RT for 36 h to 144 h to allow equilibrium to be reached. The mixture was drawn through the rhIL-8-coupled beads to accumulate unbound antibody. The captured anti-hIL-8 mAb is directly proportional to the remaining free binding sites and was detected using solutions containing Cy5-conjugated anti-human secondary antibody in sample buffer. The concentrations, volumes, and flow rates of the secondary antibody solutions were varied to optimize the signal to noise ratio in each experiment. The bound signals were converted into relative values as a proportion of control in the absence of rhIL-8. The equilibrium dissociation constant (Kd) was obtained from nonlinear regression analysis of the data using a one-site homogeneous binding model contained within the software [Blake et Al., Anal. Biochem. 272:123, 1999; Jones et al., Bioconjug Chem 13:408, 2002]. […]
A proportionate amount of free mAb present in the equilibrium mixture was measured in KinExA under optimized conditions. For example, for the mixtures containing the low concentration of mAb, 18-36 ml of the sample was flown through rhIL-8 coupled to NHS-activated Sepharose beads and detected using 1-2 ml of 2.0 μg/ml of Cy5-labeled goat anti-human IgG Fcγ fragment-specific secondary antibody. […]

[5] = biological target: T1, recombinant human Interleukin-8; assay: KinExA equilibrium in solution, 36 h, mAb 20 pM
Description: as §3, with “The experiments with KinExA were performed using an automated flow immunoassay system, KinExA 3000 [Ohmura et al., Anal. Chem. 73:3392, 2001] in which rhIL-8-coupled beads served as the solid phase. […] Antigen/antibody” for “Antigen/antibody”
A proportionate amount of free mAb present in the equilibrium mixture was measured by flowing 0.25 ml to 3 ml of the sample on rhIL-8 coupled to CNBr-activated Sepharose beads and detected using 1.0 ml of 1.7 μg/ml of Cy5-labeled goat anti-human IgG Fcγ fragment-specific secondary antibody. […]

[6] = biological target: T1, recombinant human Interleukin-8; assay: not named in this sentence (summary of the filing's own affinity results)
[7] = biological target: T1, recombinant human Interleukin-8; assay: KinExA equilibrium, optimized, n-curve analysis, mAb 0.68, 2.0 and 13.7 pM
Text: The equilibrium dissociation constant (Kd) was obtained from nonlinear regression analysis of the data using a one-site homogeneous binding model contained within the software [Blake et Al., Anal. Biochem. 272:123, 1999; Jones et al., Bioconjug Chem 13:408, 2002]. The software calculates the Kd and determines the 95% confidence interval by fitting the data points to a theoretical Kd curve. The 95% confidence interval is given as Kd low and Kd high.
A proportionate amount of free mAb present in the equilibrium mixture was measured in KinExA under optimized conditions. For example, for the mixtures containing the low concentration of mAb, 18-36 ml of the sample was flown through rhIL-8 coupled to NHS-activated Sepharose beads and detected using 1-2 ml of 2.0 μg/ml of Cy5-labeled goat anti-human IgG Fcγ fragment-specific secondary antibody. The Kd was calculated using KinExA software by using the “n-curve analysis” selection.

kon [1]: 6e+06 M⁻¹ s⁻¹
binding result [2]: binds
koff [3]: 3.7e-06 s⁻¹
Kd [4]: 0.59 pM
Kd [5]: 0.057 pM
Kd [6]: ~0.06 pM
Kd [7]: 0.613 pM
B1: anti-hIL-8 mAb 928 (antibody, human IgG2, V domains shown)
VH: QVQLVESGGGVVQPGRSLRLSCAASGFTFSSYGMLWVRQAPGKGLEWVADISYDGSNKYYADSVKGRFTISRDNSKNTLYLQMNSLRAEDTAVFYCARDRIAVADYWGQGTLVTVSS
VL: EIVLTQSPGTLSLSPGERATLSCRASQSVSSSFLAWYQQKPGQAPRLLIYGASSRATGIPDRFSGSGSGTDFILTISRLEPEDFAVYYCQQYDSSFTFGPGTKVDIK

— US20140105905A1 (Amgen, published 2014)
